Common to all, as to experiment: IEDB peptide-MHC binding, purified MHC/competitive/radioactivity; filed as Kd, often an IC50 or EC50 that approximates it; ≥ and ≤ were set here for values at or beyond the usual limits of such assays
The target of test [1] is HLA-A*26:01.
The target of test [2] is HLA-A*23:01.
For test [3], the target named is HLA-A*29:02.
Test [4] concerns the target HLA-A*30:02.
Test [5] has as its target HLA-A*24:02.
Test [6] addresses HLA-A*01:01.
Test [7] deals with HLA-B*44:03. The following applies: source organism: Dengue virus 1 Brazil/97-11/1997.
Test [8] concerns the target HLA-A*68:01. The following applies: source organism: SARS coronavirus Tor2.
The target of test [9] is HLA-A*03:01. Conditions: source organism: SARS coronavirus Tor2.
Test [10] has as its target HLA-A*11:01. Conditions: source organism: SARS coronavirus Tor2.
The target in test [11] is HLA-A*31:01. Conditions: source organism: SARS coronavirus Tor2.
The target of test [12] is HLA-A*33:01. The following applies: source organism: SARS coronavirus Tor2.
[13] abbreviates: source organism: SARS coronavirus Tor2.
[14] abbreviates: source organism: Mammarenavirus lassaense.
Where [15] appears, read: source organism: Mammarenavirus machupoense.
[16] abbreviates: source organism: Mammarenavirus guanaritoense.
The mark [17] stands for this setting: source organism: Mammarenavirus tacaribeense.
[18] abbreviates: source organism: Lassa virus GA391.

pKd: −log10 of the molar value.

Our source for the Kd values is the Immune Epitope Database (IEDB).

For orientation: pKd means the negative decadic logarithm of the Kd, by convention in mol/L. Regarding LSFKELLVY, the negative logarithm of the Kd (pKd) in test [1] (setting [13]) is 4.96; in test [2] (setting [13]) it was 5.60; in [3] (setting [13]), 8.81; in test [4] (setting [13]) it was 7.29; in [5] (setting [13]), 5.03; in test [6] (setting [13]) it was 7.07.

NEMGLLETT: in test [7], the pKd is 5.10.

Turning to PEDPIEVALY, the negative logarithm of the Kd (pKd) in test [1] (setting [14]) is no more than 4.16; in test [2] (setting [14]), no more than 4.15; in test [3] (setting [14]), 5.00; in test [4] (setting [14]), 5.91; in test [5] (setting [14]), no more than 4.15; in test [6] (setting [14]) it was no more than 4.15.

With PTITQMNLKY, the pKd was 6.08 in test [1] (setting [13]); no more than 4.15 in test [2] (setting [13]); 7.32 in [3] (setting [13]); 5.95 in test [4] (setting [13]); no more than 4.15 in test [5] (setting [13]); 7.05 in [6] (setting [13]).

For the sequence QCGDPSSFEY, the pKd in test [1] (setting [15]) was no more than 4.16; in test [2] (setting [15]), no more than 4.16; in test [3] (setting [15]), 6.22; in [4] (setting [15]) it was 5.80; in test [5] (setting [15]), no more than 4.15; in test [6] (setting [15]) it was 6.30.

As to SAAAYFVGY, the pKd in [8] is 6.97; in [1] (setting [13]), 7.07; in test [2] (setting [13]) it was 5.21; in test [3] (setting [13]), 7.18; in test [9], 7.05; in test [4] (setting [13]) it was 7.75. In addition, the pKd is 5.41 in [5] (setting [13]); 7.48 in [10]; no more than 4.58 in test [11]; no more than 4.67 in test [12]; 6.51 in [6] (setting [13]).

On to SQSDTVFDH, for which the pKd is no more than 4.11 in [1] (source organism: Variola virus); no more than 4.35 in [2] (source organism: Variola virus); no more than 4.32 in [3] (source organism: Variola virus); no more than 4.11 in [4] (source organism: Variola virus); no more than 4.11 in [5] (source organism: Variola virus); no more than 4.62 in test [6] (source organism: Variola virus).

For TAEDMLNPNY, the pKd in [1] (setting [13]) is 4.75; in test [2] (setting [13]), no more than 4.15; in test [3] (setting [13]), 5.26; in [4] (setting [13]), 5.97; in test [5] (setting [13]) it was no more than 4.15; in [6] (setting [13]) it was 5.98.

As for TYVPSQERNF, the negative-log Kd (pKd) in [1] (setting [13]) is no more than 4.16; in test [2] (setting [13]), 7.41; in [3] (setting [13]), 5.88; in [4] (setting [13]), 4.85; in [5] (setting [13]), 7.14; in test [6] (setting [13]), no more than 4.15.

Take VPDIPELSY: the pKd in [1] (setting [16]) was no more than 4.31; in test [2] (setting [16]), no more than 4.11; in test [3] (setting [16]), 4.93; in [4] (setting [16]) it was no more than 4.60; in test [5] (setting [16]), no more than 4.11; in test [6] (setting [16]), 5.51.

With VTPSGTWLTY, the pKd in [1] (setting [13]) was 6.41; in test [2] (setting [13]), no more than 4.31; in test [3] (setting [13]) it was 7.18; in test [4] (setting [13]) it was 7.34; in test [5] (setting [13]), no more than 4.24; in test [6] (setting [13]), 7.18.

WFITQRNFF: the negative-log Kd (pKd) in [1] (setting [13]) was 6.76; in [2] (setting [13]), 5.56; in test [3] (setting [13]), 7.87; in test [4] (setting [13]), 6.86; in [5] (setting [13]), no more than 4.49; in test [6] (setting [13]), 5.96.

On to YCDPKRFFL, for which the negative logarithm of the Kd (pKd) in test [1] (setting [17]) was no more than 4.11; in test [2] (setting [17]), 5.12; in [3] (setting [17]), no more than 4.10; in test [4] (setting [17]) it was no more than 4.11; in test [5] (setting [17]), 4.95; in test [6] (setting [17]), no more than 4.54.

In the case of YCNYSRYWY, the negative logarithm of the Kd (pKd) in test [1] (setting [18]) was no more than 4.11; in test [2] (setting [18]) it was no more than 4.43; in test [3] (setting [18]), 5.91; in [4] (setting [18]) it was 6.09; in [5] (setting [18]), no more than 4.11; in test [6] (setting [18]), no more than 4.46.
